Experimental data: doi:10.1101/2021.04.12.439405 (bioRxiv, 2021)

Target: T1, MukB^K1114E (E. coli, UniProt P22523 1-1486, K1114E)
T1 sequence (looked up): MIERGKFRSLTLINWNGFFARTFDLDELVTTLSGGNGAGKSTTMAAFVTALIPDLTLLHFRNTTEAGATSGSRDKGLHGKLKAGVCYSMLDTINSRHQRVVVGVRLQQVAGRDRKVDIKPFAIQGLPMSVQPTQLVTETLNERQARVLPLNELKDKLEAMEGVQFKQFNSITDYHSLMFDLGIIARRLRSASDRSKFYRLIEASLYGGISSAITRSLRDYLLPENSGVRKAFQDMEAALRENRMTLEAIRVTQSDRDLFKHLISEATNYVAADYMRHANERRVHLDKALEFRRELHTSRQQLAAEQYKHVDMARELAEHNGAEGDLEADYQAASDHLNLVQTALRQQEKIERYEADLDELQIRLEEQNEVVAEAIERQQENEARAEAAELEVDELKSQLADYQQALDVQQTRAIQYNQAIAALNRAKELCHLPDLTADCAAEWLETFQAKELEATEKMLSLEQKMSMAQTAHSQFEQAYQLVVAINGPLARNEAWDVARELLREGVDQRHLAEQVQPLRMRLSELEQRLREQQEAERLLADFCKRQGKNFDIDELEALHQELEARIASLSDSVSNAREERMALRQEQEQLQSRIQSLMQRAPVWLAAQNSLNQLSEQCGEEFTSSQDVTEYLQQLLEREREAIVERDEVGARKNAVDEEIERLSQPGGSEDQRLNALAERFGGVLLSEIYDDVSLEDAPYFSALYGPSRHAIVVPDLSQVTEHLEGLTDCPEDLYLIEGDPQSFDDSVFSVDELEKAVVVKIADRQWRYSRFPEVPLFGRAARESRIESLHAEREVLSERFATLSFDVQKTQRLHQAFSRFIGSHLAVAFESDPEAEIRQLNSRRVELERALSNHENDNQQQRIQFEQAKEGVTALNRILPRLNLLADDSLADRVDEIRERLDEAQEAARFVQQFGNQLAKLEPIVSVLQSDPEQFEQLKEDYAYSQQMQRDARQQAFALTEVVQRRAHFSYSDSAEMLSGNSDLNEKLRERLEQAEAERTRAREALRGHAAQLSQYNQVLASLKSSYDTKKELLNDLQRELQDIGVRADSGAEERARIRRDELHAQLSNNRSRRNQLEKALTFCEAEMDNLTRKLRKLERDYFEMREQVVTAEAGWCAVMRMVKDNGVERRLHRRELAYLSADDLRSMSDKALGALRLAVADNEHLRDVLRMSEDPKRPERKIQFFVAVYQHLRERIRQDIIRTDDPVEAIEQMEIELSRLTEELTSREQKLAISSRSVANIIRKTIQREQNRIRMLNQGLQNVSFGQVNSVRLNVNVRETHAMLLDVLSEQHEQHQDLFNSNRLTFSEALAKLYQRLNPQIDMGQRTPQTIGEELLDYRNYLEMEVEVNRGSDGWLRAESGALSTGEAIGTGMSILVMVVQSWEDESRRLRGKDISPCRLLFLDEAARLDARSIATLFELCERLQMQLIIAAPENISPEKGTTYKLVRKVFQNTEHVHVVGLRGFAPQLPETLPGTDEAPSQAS
Experiment: native gel or EMSA

B1: His-MukF (natural protein, E. coli, UniProt P60293 1-440, looked up)
chain: MSEFSQTVPELVAWARKNDFSISLPVDRLSFLLAVATLNGERLDGEMSEGELVDAFRHVSDAFEQTSETIGVRANNAINDMVRQRLLNRFTSEQAEGNAIYRLTPLGIGITDYYIRQREFSTLRLSMQLSIVAGELKRAADAAEEGGDEFHWHRNVYAPLKYSVAEIFDSIDLTQRLMDEQQQQVKDDIAQLLNKDWRAAISSCELLLSETSGTLRELQDTLEAAGDKLQANLLRIQDATMTHDDLHFVDRLVFDLQSKLDRIISWGQQSIDLWIGYDRHVHKFIRTAIDMDKNRVFAQRLRQSVQTYFDEPWALTYANADRLLDMRDEEMALRDEEVTGELPEDLEYEEFNEIREQLAAIIEEQLAVYKTRQVPLDLGLVVREYLSQYPRARHFDVARIVIDQAVRLGVAQADFTGLPAKWQPINDYGAKVQAHVIDKY
Q: Does B1 bind?
A: binds
